According to patent publication US20220010003A1 (Boehringer Ingelheim, published 2022):

T1: recombinant human periostin (human, UniProt Q15063 22-836)
T1 construct: also called HuPOSTN; POSTN
T1 sequence: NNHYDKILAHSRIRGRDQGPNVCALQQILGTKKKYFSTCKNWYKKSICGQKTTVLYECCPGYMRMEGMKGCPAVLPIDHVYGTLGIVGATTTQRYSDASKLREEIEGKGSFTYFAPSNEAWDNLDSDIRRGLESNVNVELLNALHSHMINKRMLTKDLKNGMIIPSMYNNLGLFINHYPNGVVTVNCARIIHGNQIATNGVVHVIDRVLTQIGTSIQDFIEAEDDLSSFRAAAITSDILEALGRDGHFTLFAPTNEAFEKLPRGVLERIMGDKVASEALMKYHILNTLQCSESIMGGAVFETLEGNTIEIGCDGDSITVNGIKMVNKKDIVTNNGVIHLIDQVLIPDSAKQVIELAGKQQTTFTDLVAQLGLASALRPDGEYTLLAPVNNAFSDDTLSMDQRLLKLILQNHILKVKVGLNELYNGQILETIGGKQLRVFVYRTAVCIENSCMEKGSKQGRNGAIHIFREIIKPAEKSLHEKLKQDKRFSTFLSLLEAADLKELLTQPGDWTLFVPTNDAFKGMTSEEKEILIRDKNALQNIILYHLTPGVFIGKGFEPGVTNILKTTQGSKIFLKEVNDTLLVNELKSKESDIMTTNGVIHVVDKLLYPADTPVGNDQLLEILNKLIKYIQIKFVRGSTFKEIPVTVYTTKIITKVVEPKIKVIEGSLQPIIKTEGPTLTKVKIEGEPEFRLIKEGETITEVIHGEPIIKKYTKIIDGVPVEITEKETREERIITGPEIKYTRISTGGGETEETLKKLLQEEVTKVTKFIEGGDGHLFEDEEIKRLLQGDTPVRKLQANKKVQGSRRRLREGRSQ

T2: recombinant mouse periostin (mouse, UniProt Q62009-2 24-811, limits assumed)
T2 construct: also called MoPOSTN
T2 sequence (looked up): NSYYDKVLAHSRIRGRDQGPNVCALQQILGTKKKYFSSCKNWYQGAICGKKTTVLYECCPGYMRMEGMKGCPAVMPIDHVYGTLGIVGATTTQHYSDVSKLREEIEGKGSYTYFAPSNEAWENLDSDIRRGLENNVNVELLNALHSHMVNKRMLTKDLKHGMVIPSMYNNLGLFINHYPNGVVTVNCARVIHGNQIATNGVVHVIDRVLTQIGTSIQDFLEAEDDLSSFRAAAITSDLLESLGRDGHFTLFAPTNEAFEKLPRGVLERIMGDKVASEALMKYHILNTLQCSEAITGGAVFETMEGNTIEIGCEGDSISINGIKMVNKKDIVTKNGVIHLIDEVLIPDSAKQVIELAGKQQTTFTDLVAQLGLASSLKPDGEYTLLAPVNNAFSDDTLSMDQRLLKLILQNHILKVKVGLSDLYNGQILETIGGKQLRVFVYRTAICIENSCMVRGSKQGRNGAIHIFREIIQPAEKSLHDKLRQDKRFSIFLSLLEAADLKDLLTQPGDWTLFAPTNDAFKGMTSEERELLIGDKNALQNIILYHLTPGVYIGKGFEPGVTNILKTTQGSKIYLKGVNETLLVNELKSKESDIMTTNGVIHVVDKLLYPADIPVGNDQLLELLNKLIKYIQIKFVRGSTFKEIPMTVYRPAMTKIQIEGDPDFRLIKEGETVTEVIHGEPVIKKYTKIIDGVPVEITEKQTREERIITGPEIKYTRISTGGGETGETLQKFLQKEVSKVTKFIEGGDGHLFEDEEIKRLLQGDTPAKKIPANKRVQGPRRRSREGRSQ


Columns and labels:
[1] = biological target: T1, recombinant human periostin; test: ELISA, periostin coated, anti-human Fc-HRP; the clone is named in Table 2
[2] = biological target: T2, recombinant mouse periostin; test: as above
[3] = biological target: T1, recombinant human periostin; test: cell-based or functional assay
[4] = biological target: T1, recombinant human periostin; test: binding ELISA, periostin coated
[5] = biological target: T2, recombinant mouse periostin; test: binding ELISA, periostin coated
[6] = biological target: T1, recombinant human periostin; test: cell-based or functional assay; remark: listed apart in the source
[7] = biological target: T2, recombinant mouse periostin; test: cell-based or functional assay

EC50 [1] [nM] | EC50 [2] [nM] | IC50 (nM), cell attachment assay [3] [nM] | EC50 [4] [nM] | EC50 [5] [nM] | CAA IC50 [6] [nM] | CAA IC50 [7] [nM] | Binder
< 1 | < 1 | 22.4 | – | – | – | – | NB0627 (antibody, human IgG1, V domains shown) VH: QVQLVQSGAEVKKPGASVKVSCKASGYTFTSYGISWVRQAPGQGLEWMGWISAYNGNTNYAQKLQGRVTMTTDTSTSTAYMELRSLRSDDTAVYYCARDMLVVPFDYWGQGTLVTVSS VL: QSVLTQSSSASGTPGQTVTVSCSGSSSDIGSNRVNWYQQLPGTAPKLLIYSNDQRPSGVPDRFSGSKSGTSASLAISGLQSADEADYYCAAWDDSLSTYVFGSGTKVTVL
– | – | – | 0.07 | 0.07 | 15 | 22.3 | NB1011 (N55T) (antibody, V domains shown, Variant of NB0828 (IgG4PAA parent); the isotype of the variant is not restated) VH: QVQLVQSGAEVKKPGASVKVSCKASGYTFTSYGISWVRQAPGQGLEWMGWISAYTGNTNYAQKLQGRVTMTTDTSTSTAYMELRSLRSDDTAVYYCARDMLVVPFDYWGQGTLVTVSS VL: QSVLTQSSSASGTPGQTVTVSCSGSSSDIGSNRVNWYQQLPGTAPKLLIYSNDQRPSGVPDRFSGSKSGTSASLAISGLQSADEADYYCAAWDDSLSTYVFGSGTKVTVL
– | – | – | 0.08 | 0.1 | 7.97 | 19.6 | NB1010 (N55Q) (antibody, V domains shown, Variant of NB0828 (IgG4PAA parent); the isotype of the variant is not restated) VH: QVQLVQSGAEVKKPGASVKVSCKASGYTFTSYGISWVRQAPGQGLEWMGWISAYQGNTNYAQKLQGRVTMTTDTSTSTAYMELRSLRSDDTAVYYCARDMLVVPFDYWGQGTLVTVSS VL: QSVLTQSSSASGTPGQTVTVSCSGSSSDIGSNRVNWYQQLPGTAPKLLIYSNDQRPSGVPDRFSGSKSGTSASLAISGLQSADEADYYCAAWDDSLSTYVFGSGTKVTVL
– | – | – | 0.08 | 0.08 | 10.8 | 14.9 | NB1003 (N55S) (antibody, V domains shown, Variant of NB0828 (IgG4PAA parent); the isotype of the variant is not restated) VH: QVQLVQSGAEVKKPGASVKVSCKASGYTFTSYGISWVRQAPGQGLEWMGWISAYSGNTNYAQKLQGRVTMTTDTSTSTAYMELRSLRSDDTAVYYCARDMLVVPFDYWGQGTLVTVSS VL: QSVLTQSSSASGTPGQTVTVSCSGSSSDIGSNRVNWYQQLPGTAPKLLIYSNDQRPSGVPDRFSGSKSGTSASLAISGLQSADEADYYCAAWDDSLSTYVFGSGTKVTVL
– | – | – | 0.12 | 0.18 | 13.6 | 20.9 | NB1015 (N55D) (antibody, V domains shown, Variant of NB0828 (IgG4PAA parent); the isotype of the variant is not restated) VH: QVQLVQSGAEVKKPGASVKVSCKASGYTFTSYGISWVRQAPGQGLEWMGWISAYDGNTNYAQKLQGRVTMTTDTSTSTAYMELRSLRSDDTAVYYCARDMLVVPFDYWGQGTLVTVSS VL: QSVLTQSSSASGTPGQTVTVSCSGSSSDIGSNRVNWYQQLPGTAPKLLIYSNDQRPSGVPDRFSGSKSGTSASLAISGLQSADEADYYCAAWDDSLSTYVFGSGTKVTVL
– | – | – | 2.28 | 4.42 | – | 42.3 | NB1012 (N55S_M100I) (antibody, V domains shown, Double mutant of NB0828 (IgG4PAA parent); the isotype of the variant is not restated) VH: QVQLVQSGAEVKKPGASVKVSCKASGYTFTSYGISWVRQAPGQGLEWMGWISAYSGNTNYAQKLQGRVTMTTDTSTSTAYMELRSLRSDDTAVYYCARDILVVPFDYWGQGTLVTVSS VL: QSVLTQSSSASGTPGQTVTVSCSGSSSDIGSNRVNWYQQLPGTAPKLLIYSNDQRPSGVPDRFSGSKSGTSASLAISGLQSADEADYYCAAWDDSLSTYVFGSGTKVTVL
– | – | – | 9.47 | 19.3 | – | 65.1 | NB1014 (N55T_M100V) (antibody, V domains shown, Double mutant of NB0828 (IgG4PAA parent); the isotype of the variant is not restated) VH: QVQLVQSGAEVKKPGASVKVSCKASGYTFTSYGISWVRQAPGQGLEWMGWISAYTGNTNYAQKLQGRVTMTTDTSTSTAYMELRSLRSDDTAVYYCARDVLVVPFDYWGQGTLVTVSS VL: QSVLTQSSSASGTPGQTVTVSCSGSSSDIGSNRVNWYQQLPGTAPKLLIYSNDQRPSGVPDRFSGSKSGTSASLAISGLQSADEADYYCAAWDDSLSTYVFGSGTKVTVL
